Measurements from patent US20130095480A1 (BOARD OF TRUSTEES OF THE UNIVERSITY OF ARKANSAS, published 2013).

Biological target: T1, Chondroitin Sulfate Proteoglycan 4 (CSPG4) (human, UniProt Q6UVK1 30-2322, carries chondroitin sulfate (CS) glycosaminoglycan chains)
T1 construct: whole, on cells; also called High Molecular Weight Melanoma Associated Antigen; Melanoma Chondroitin Sulfate Proteoglycan
Experiment: flow cytometry, recombinant P-selectin/Fc on M14-CSPG4 versus mock-transfected M14 cells
Experimental: Briefly, cells were incubated with mAb or P-selectin/Fc, washed and stained with FITC-conjugated anti-mouse IgM or anti-human IgG prior to binding detection by flow cytometry. R-phycoerythrin-conjugated polyclonal goat anti-mouse F(ab′)₂ was used as secondary for detection of anti-CSPG4 binding.

T1 sequence (Q6UVK1 30-2322): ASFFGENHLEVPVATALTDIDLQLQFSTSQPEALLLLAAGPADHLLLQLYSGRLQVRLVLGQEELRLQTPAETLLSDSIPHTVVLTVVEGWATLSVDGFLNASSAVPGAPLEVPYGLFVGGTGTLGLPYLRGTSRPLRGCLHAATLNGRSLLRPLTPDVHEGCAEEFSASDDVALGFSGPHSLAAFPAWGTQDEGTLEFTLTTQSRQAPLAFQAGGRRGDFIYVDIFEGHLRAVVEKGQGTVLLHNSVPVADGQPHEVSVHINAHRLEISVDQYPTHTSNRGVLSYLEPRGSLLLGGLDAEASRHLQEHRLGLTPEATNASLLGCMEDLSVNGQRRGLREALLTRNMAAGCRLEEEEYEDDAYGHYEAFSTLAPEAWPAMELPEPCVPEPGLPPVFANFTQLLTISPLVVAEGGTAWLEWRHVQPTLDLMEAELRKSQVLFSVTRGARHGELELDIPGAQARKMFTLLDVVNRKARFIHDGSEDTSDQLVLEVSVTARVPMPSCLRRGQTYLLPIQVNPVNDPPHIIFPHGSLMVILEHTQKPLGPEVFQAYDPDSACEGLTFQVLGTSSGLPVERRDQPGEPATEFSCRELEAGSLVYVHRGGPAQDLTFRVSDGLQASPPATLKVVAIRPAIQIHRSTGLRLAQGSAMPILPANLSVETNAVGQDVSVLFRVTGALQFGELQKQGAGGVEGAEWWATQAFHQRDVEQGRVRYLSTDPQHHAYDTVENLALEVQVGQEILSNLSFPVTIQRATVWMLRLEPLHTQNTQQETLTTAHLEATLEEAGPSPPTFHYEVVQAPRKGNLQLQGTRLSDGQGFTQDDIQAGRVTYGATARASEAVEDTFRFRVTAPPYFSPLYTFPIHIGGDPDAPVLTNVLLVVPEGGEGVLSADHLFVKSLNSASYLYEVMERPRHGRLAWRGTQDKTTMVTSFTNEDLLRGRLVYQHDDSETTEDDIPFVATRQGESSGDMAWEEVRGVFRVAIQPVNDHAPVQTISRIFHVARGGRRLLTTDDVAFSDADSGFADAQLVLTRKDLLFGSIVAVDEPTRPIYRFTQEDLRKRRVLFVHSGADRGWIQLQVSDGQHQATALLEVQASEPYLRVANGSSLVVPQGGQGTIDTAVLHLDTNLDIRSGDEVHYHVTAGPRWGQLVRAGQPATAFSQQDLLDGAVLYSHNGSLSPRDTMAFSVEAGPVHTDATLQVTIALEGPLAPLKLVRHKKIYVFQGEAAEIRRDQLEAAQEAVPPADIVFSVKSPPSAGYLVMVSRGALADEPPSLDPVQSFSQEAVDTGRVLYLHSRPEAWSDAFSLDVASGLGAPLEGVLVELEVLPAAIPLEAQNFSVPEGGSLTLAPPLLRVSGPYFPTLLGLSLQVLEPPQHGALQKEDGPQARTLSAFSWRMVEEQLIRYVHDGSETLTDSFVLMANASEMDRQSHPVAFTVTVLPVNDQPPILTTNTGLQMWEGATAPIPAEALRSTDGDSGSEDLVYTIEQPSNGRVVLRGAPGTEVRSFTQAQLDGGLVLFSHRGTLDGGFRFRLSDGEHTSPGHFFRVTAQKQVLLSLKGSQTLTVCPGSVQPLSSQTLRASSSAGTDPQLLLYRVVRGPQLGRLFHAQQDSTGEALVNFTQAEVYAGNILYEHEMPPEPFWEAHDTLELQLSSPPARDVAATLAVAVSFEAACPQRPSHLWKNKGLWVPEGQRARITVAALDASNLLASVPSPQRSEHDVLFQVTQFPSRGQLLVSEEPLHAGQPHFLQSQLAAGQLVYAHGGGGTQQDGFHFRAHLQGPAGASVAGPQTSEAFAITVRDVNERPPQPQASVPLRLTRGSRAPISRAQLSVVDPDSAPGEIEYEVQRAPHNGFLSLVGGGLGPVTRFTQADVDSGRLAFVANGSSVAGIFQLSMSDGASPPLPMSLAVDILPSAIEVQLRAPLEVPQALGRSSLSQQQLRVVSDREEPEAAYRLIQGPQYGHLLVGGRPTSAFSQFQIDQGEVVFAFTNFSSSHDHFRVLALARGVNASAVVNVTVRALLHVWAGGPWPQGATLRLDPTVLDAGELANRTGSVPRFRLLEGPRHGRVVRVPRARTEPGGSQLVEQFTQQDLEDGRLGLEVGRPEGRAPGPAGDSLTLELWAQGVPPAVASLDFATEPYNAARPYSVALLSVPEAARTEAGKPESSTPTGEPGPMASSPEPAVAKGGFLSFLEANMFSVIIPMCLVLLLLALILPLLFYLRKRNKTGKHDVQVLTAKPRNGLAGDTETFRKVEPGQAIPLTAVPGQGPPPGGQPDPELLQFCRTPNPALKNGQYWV

binding result: binds
B1: recombinant human P-selectin/Fc (human IgG) (Fc fusion, UniProt P16109 42-771, looked up)
chain: WTYHYSTKAYSWNISRKYCQNRYTDLVAIQNKNEIDYLNKVLPYYSSYYWIGIRKNNKTWTWVGTKKALTNEAENWADNEPNNKRNNEDCVEIYIKSPSAPGKWNDEHCLKKKHALCYTASCQDMSCSKQGECLETIGNYTCSCYPGFYGPECEYVRECGELELPQHVLMNCSHPLGNFSFNSQCSFHCTDGYQVNGPSKLECLASGIWTNKPPQCLAAQCPPLKIPERGNMTCLHSAKAFQHQSSCSFSCEEGFALVGPEVVQCTASGVWTAPAPVCKAVQCQHLEAPSEGTMDCVHPLTAFAYGSSCKFECQPGYRVRGLDMLRCIDSGHWSAPLPTCEAISCEPLESPVHGSMDCSPSLRAFQYDTNCSFRCAEGFMLRGADIVRCDNLGQWTAPAPVCQALQCQDLPVPNEARVNCSHPFGAFRYQSVCSFTCNEGLLLVGASVLQCLATGNWNSVPPECQAIPCTPLLSPQNGTMTCVQPLGSSSYKSTCQFICDEGYSLSGPERLDCTRSGRWTDSPPMCEAIKCPELFAPEQGSLDCSDTRGEFNVGSTCHFSCDNGFKLEGPNNVECTTSGRWSATPPTCKGIASLPTPGVQCPALTTPGQGTMYCRHHPGTFGFNTTCYFGCNAGFTLIGDSTLSCRPSGQWTAVTPACRAVKCSELHVNKPIAMNCSNLWGNFSYGSICSFHCLEGQLLNGSAQTACQENGHWSTTVPTCQAGPLTIQEA
notes: Bought reagent (R&D Systems); also called recombinant P-selectin; not shown: Fc of human IgG
